Assays:
[1] = molecular target: anti-FXIa antibody 076D-M007-H04-CDRL3-N110D; test: ELISA, 076D-M007-H04-CDRL3-N110D coated at 1 µg/ml, anti-human lambda light chain-peroxidase detection
[2] = molecular target: anti-FXIa antibody 076D-M007-H04-CDRL3-N110D; test: cell-based or functional assay

EC50 [1]	Neutralizing activity, IC50 (biochemical FXIa assay) [2]	Neutralizing activity (biochemical FXIa assay) (% inhibition at 1.00E-06 M) [2]	aPTT 1.5 X [2]	aPTT 1.5 X (EC150) [2]	biochemical FXIa assay IC 50 [2]	plasma based FXIa assay, IC50 [2]	plasma based assay IC 50 [2]	Binder
0.484 nM	> 1000 nM	–	–	–	–	–	–	TPP-8236 (antibody, human IgG1, lambda, V domains shown) VH: EVQLLESGGGLVQPGGSLRLSCAASGFTFSDYYMNWVRQAPGKGLEWVSTISGTGAAAFYADSVRGRFTISRDNSKNTLYLQMNSLRAEDTAVYYCARDQYLTGGAFDIWGQGTLVTVSS VL: QSVLTQPPSASGTPGQRVTISCSGSSSNIGNNAVNWYQQLPGTAPKLLIYGNSNRPSGVPDRFSGSKSGTSASLAISGLRSEDEADYYCSSYRGSSTLVVFGGGTKLTVLG
0.477 nM	> 1000 nM	–	–	–	–	–	–	TPP-8246 (antibody, human IgG1, lambda, V domains shown) VH: EVQLLESGGGLVQPGGSLRLSCAASGFTFSSYSMNWVRQAPGKGLEWVSTISGSGGITHYADSVKGRFTISRDNSKNTLYLQMNSLRAEDTAVYYCARDRGNRVAARPAFDYWGQGTLVTVSS VL: QSVLTQPPSASGTPGQRVTISCTESSSNTGAGYDVHWYQQLPGTAPKLLIYGNTNRPSGVPDRFSGSKSGTSASLAISGLRSEDEADYYCASWDDNLGGWVFGGGTKLTVLG
0.485 nM	–	75	–	–	–	–	–	TPP-8238 (antibody, human IgG1, lambda, V domains shown) VH: EVQLLESGGGLVQPGGSLRLSCAASGFTFSSYSMNWVRQAPGKGLEWVASISGSGANTYFADTVKGRFTISRDNSKNTLYLQMNSLRAEDTAMYYCARHGQVRLNYGSPTTVYNWFDRWGQGTLVTVSS VL: QSVLTQPPSASGTPGQRVTISCTGSSSNIGAGYDVHWYQQLPGTAPKLLIYGNSNRPSGVPDRFSGSKSGTSASLAISGLRSEDEADYYCAAWHDSLNGWVFGGGTKLTVLG
0.256 nM	1.13 nM	–	0.3 µM	0.3 µM	1.1 nM	5 nM	5 nM	TPP-8243 (antibody, human IgG1, lambda, V domains shown) VH: EVQLLESGGGLVQPGGSLRLSCAASGFTFSNYGIHWVRQAPGKGLEWVSAIGTGGDTYYADSVMGRFTISRDNSKNTLYLQMNSLRAEDTAVYYCARDRGYYDILTGLYDYWGQGTLVTVSS VL: QSVLTQPPSASGTPGQRVTISCSGSSSNIGNNAVNWYQQLPGTAPKLLIYGNYHRPSGVPDRFSGSKSGTSASLAISGLRSEDEADYYCSSYAGSNNWVFGGGTKLTVLG
0.216 nM	> 1000 nM	–	–	–	–	–	–	TPP-8240 (antibody, human IgG1, lambda, V domains shown) VH: EVQLLESGGGLVQPGGSLRLSCAASGFTFSSYAMSWVRQAPGKGLEWVAVISYDGSNKHYADSVKGRFTISRDNSKNTLYLQMNSLRAEDTAVYYCARDSMVRGKIFDYWGQGTLVTVSS VL: QSVLTQPPSASGTPGQRVTISCSGSSSNIGNNAVNWYQQLPGTAPKLLIYEDNKRPSGVPDRFSGSKSGTSASLAISGLRSEDEADYYCMIWHSSAWVFGGGTKLTVLG

Source: US20210395390A1
